In patent US6441158, “Oligomers that bind to ku protein” (Medical College of Georgia Research Institute, Inc.):

B1: SC4 (ssRNA)
RNA: GGGAGGAUAUUUUCUCAGACCGUAACCUAGUCUAAUCGAGGCUUUCCCAGUGACAAUGACCCACUUGCAGCAUCGUGAACUAGGAUC
B2: SC9 (ssRNA)
RNA: GGGAGGAUAUUUUCUCAGACCGUAAUGCCUUUAGCUGCGACAAUGAACAGCAUGACCUCACUACUUGCAGCAUCGUGAACUAGGAUC
B3: #1-2 (ssRNA)
RNA: GGGAGGAUAUUUUCUCAGACCGUAACAACACCUUGCUUUCCCAAUACCCUGAAAUACAGUCGGAUUUGCAGCAUCGUGAACUAGGAUC
B4: SC11 (ssRNA)
RNA: GGGAGGAUAUUUUCUCAGACCGUAACUUAGUUUCGAUCGAAGCUCAUUGGCCCAGCGUGGAUAACUUGCAGCAUCGUGAACUAGGAUC
B5: #52 (ssRNA)
RNA: GGGAGGAUAUUUUCUCAGACCGUAACUGAUCGUUCAAUGACUAUUCUUUACCUUGAGUAACCGAUUGCAGCAUCGUGAACUAGGAUC
B6: #7-3 (ssRNA)
RNA: GGGAGGAUAUUUUCUCAGACCGUAAAGGUCGGCAUACAGAGUUCCGAAUGCGCGUAACUUCGACUUUGCAGCAUCGUGAACUAGGAUC
B7: SC13 (ssRNA)
RNA: GGGAGGAUAUUUUCUCAGACCGUAAACCUUUUUAGACGAACCUCAAAGUACAUUUAGUUGAAAACUUGCAGCAUCGUGAACUAGGAUC
B8: SC1 (ssRNA)
RNA: GGGAGGAUAUUUUCUCAGACCGUAAUUGUUCAACCUUGUCUAACAUGAUACCGAUACGGACUACAUUGCAGCAUCGUGAACUAGGAUC
B9: #2 (ssRNA)
RNA: GGGAGGAUAUUUUCUCAGACCGUAAGCCUAUGCACGGAGCUUUCCCAGCUACAGAUGAAACCAGCUUGCAGCAUCGUGAACUAGGAUC
B10: #85 (ssRNA)
RNA: GGGAGGAUAUUUUCUCAGACCGUAACAAGUAUCACGCACUUUCCCAUUCACUGUUAGAGACUGAUUGCAGCAUCGUGAACUAGGAUC
B11: #84 (ssRNA)
RNA: GGGAGGAUAUUUUCUCAGACCGUAAAUCCGCGUACCGGGCUCAAAUGUCACUAUAGUAGAAAGCAUUGCAGCAUCGUGAACUAGGAUC
B12: 21 bp double-stranded DNA (dsDNA)
DNA 1: CTCAGGCGTTGACGACAACCC
DNA 2: GGGTTGTCGTCAACGCCTGAG
B13: #42 (ssRNA)
RNA: GGGAGGAUAUUUUCUCAGACCGUAACAUCCUGGUACUCACUUCGACAUCGUACGUUCAAUCAUACUUGCAGCAUCGUGAACUAGGAUC
B14: SC5 (ssRNA)
RNA: GGGAGGAUAUUUUCUCAGACCGUAACUUGAACAUGAUAGGCUUACCCAUAGACAGAUUGACCCUUUUGCAGCAUCGUGAACUAGGAUC
B15: SC6 (ssRNA)
RNA: GGGAGGAUAUUUUCUCAGACCGUAAGACUCACGAUGGACCAUACGCCUUCCCACUGGUCUUGUUAUUGCAGCAUCGUGAACUAGGAUC
B16: SC2 (ssRNA)
RNA: GGGAGGAUAUUUUCUCAGACCGUAACACGCUCUACAACAGAUUGCGAAUUAACUUACGCUUCAUAUUGCAGCAUCGUGAACUAGGAUC
B17: SC3 (ssRNA)
RNA: GGGAGGAUAUUUUCUCAGACCGUAACAUUACCACAGUUCUAGCAUCCCGCAAUGGUAAGUCCGCAUUGCAGCAUCGUGAACUAGGAUC
B18: SC8 (ssRNA)
RNA: GGGAGGAUAUUUUCUCAGACCGUAAGUCCUUCACUAAUGCUUACCAGACACACUAAGAACGUCACUUGCAGCAUCGUGAACUAGGAUC
B19: #1-17 (ssRNA)
RNA: GGGAGGAUAUUUUCUCAGACCGUAAUCCUUAUUUUAUGGCUUUCCCACGCACACAAGCGUCUGCGUUGCAGCAUCGUGAACUAGGAUC
B20: SC12 (ssRNA)
RNA: GGGAGGAUAUUUUCUCAGACCGUAACUCGCAACAUGACUUCGAAAGUUUAAUCGUUCUUGUCAAUUGCAGCAUCGUGAACUAGGAUC

Legend:
[1] = biological target: T1, Ku protein (Ku70/Ku80 heterodimer) (Homo sapiens, UniProt P12956;P13010 P12956:2-609,P13010:2-732); experiment: EMSA; conditions: tags: none, purified from HeLa cell nuclear extracts
T1 sequence (P12956 2-609, chain 1 of 2): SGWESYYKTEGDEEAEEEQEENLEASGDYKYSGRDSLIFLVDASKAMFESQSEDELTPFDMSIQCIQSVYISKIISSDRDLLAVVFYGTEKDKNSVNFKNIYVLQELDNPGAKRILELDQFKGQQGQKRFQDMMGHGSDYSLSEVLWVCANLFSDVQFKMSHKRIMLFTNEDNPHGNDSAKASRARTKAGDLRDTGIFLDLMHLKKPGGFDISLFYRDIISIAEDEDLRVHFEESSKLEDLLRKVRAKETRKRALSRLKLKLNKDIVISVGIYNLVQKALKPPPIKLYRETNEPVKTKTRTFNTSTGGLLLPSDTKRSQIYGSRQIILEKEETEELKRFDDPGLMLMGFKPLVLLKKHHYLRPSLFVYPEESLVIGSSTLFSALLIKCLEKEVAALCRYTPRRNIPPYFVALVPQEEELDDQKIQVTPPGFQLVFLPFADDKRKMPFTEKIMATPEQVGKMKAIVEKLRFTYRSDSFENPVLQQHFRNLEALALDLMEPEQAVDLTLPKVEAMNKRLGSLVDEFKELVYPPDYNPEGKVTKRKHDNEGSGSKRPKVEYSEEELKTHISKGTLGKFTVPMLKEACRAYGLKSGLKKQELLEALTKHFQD
T1 sequence (P13010 2-732, chain 2 of 2): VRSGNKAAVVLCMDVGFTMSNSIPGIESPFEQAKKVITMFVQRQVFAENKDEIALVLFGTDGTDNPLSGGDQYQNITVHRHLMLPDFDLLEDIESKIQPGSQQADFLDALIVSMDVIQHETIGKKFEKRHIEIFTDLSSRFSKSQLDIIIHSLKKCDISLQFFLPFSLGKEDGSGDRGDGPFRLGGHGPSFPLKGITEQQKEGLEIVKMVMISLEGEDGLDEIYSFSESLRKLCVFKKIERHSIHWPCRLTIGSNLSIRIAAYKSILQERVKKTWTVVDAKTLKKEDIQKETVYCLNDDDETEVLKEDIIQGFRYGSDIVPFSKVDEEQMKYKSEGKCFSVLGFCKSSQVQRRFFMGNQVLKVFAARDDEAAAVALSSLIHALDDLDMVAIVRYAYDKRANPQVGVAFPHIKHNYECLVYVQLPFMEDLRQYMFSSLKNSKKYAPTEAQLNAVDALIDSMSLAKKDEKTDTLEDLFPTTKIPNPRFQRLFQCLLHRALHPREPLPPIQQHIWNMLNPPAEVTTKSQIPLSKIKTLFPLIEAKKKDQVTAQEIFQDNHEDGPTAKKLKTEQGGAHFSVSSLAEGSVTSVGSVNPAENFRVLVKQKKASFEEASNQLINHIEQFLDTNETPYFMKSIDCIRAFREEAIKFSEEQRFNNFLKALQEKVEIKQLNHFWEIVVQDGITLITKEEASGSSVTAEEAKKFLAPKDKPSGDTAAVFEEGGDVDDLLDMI

[2] = biological target: DNA-PK (Ku protein + DNA-PKcs) (Homo sapiens, UniProt P12956;P13010;P78527 P12956:2-609,P13010:2-732,P78527:1-4128); experiment: inhibition; DNA-PK kinase inhibition class A at 16-32 nM RNA; conditions: tags: none, both purified from HeLa cell nuclear extracts
[3] = biological target: T1, Ku protein (Ku70/Ku80 heterodimer); experiment: EMSA; printed as SCI; conditions: tags: none, purified from HeLa cell nuclear extracts
[4] = biological target: T1, Ku protein (Ku70/Ku80 heterodimer); experiment: EMSA; 5 mM MgCl2; conditions: tags: none, purified from HeLa cell nuclear extracts
[5] = biological target: T1, Ku protein (Ku70/Ku80 heterodimer); experiment: EMSA; binding comparable to round 6 RNA (about 0.3 nM); conditions: tags: none, purified from HeLa cell nuclear extracts; label: 5'-32P
From the text: Binding curves were obtained with EMSA followed by a nonlinear least squares fit of the data. […] A twenty-one base pair double-stranded DNA was end-labeled with T4 polynucleotide kinase.

| Binder | Kd [1] [nM] | activity [2] [% inhibition] | other results |
| --- | --- | --- | --- |
| B1 | 1.7 |  |  |
| B2 | 0.6 |  |  |
| B3 | 1.5 | ≥ 85 |  |
| B4 | > 10 |  |  |
| B5 | 3.2 |  |  |
| B6 | 1.8 | ≥ 85 |  |
| B7 | 0.8 |  |  |
| B8 |  |  | Kd [3]: 1.2 nM |
| B9 |  | ≥ 85 | Kd [4]: 0.3 nM |
| B10 | 0.7 |  |  |
| B11 | 1.8 |  |  |
| B12 |  |  | binding result [5]: binds |
| B13 | 4.5 |  |  |
| B14 | 2 | ≥ 85 |  |
| B15 | 2 |  |  |
| B16 | 0.8 | ≥ 85 |  |
| B17 | 0.8 |  |  |
| B18 | 0.6 | ≥ 85 |  |
| B19 | 3.2 |  |  |
| B20 | 0.5 |  |  |
